# B1: recombinant His-RhoD loaded with GTPγS (natural protein, mouse, UniProt P97348 1-210, looked up)
# chain: MNASQVAGEEAPQSGHSVKVVLVGDGGCGKTSLMMVFAKGAFPESYSPTVFERYNATLQMKGKPVHLQIWDTAGQDDYDRLRPLFYPDANVLLLCFDVTNPNSFDNVSNRWYPEVTHFCKGVPIIVVGCKIDLRKDKVLVNNLRKKRLEPVTYHRGHDMARSVGAVAYLECSARLHDNVEAVFQEAAEVALSSRRHNFWRRITQNCCLAT
# Target: recombinant GST-Pak6 (from pMW-GST-Pak6, E. coli) (human, UniProt Q9NQU5 1-681)
# Assay: pull-down
# Conditions: both partners purified
# Chain of recombinant GST-Pak6 (from pMW-GST-Pak6, E. coli) (Q9NQU5 whole entry): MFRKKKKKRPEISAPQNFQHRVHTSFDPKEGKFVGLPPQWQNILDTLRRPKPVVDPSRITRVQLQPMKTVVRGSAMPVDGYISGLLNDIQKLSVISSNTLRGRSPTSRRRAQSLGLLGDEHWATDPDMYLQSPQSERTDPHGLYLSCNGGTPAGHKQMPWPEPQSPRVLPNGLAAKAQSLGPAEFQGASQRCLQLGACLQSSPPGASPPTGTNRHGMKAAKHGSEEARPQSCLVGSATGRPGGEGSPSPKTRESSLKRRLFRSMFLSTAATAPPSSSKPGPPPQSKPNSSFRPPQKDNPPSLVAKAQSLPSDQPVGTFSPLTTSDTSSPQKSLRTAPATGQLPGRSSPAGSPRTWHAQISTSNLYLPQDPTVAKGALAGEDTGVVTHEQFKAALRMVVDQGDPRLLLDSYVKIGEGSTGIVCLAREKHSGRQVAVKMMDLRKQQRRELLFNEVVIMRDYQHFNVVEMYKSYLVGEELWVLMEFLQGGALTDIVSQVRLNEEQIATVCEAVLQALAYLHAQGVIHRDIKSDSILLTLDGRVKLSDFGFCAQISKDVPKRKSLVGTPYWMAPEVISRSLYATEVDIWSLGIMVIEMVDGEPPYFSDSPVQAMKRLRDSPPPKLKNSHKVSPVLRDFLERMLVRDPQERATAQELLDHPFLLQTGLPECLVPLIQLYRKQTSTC
binder,measurement,value
B1,binding result,binds
